The target of assay [1] is T1, monomeric HLA-A2:NY-ESO-1(156-165) (V at position 165) peptide complex, 2906.
T1 construct: also called soluble HLA-A2:NY-ESO-1 peptide complex
As to the kind of experiment: SPR, 37 C, antibody captured, monomeric complex injected.

Assay [2] concerns the target T1, monomeric HLA-A2:NY-ESO-1(156-165) (V …). As to the kind of experiment: SPR, 25 C, antibody captured, monomeric complex injected.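 Also: antibody held on sensor chip via immobilized anti-human or anti-mouse Fc antibody, rate constants derived by fitting sensorgrams to a 1:1 binding model.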 A general note: Surface plasmon resonance follows binding to a sensor surface in real time, without labels.
Assay [3] deals with HLA-A2 on T2 cells pulsed with URB1: 1853-1861 peptide (human). As to the kind of experiment: flow cytometry, 10 ug/ml, pulsed T2 cells. (In flow cytometry, cells or beads pass a laser one at a time.)
The target of assay [4] is HLA-A2 on T2 cells pulsed with BCL9L: 1351-1359 peptide (human). As to the kind of experiment: flow cytometry, 10 ug/ml, pulsed T2 cells.
In assay [5] the target is HLA-A2 on T2 cells pulsed with EARS2: 306-314 peptide (human). As to the kind of experiment: flow cytometry, 10 ug/ml, pulsed T2 cells.
Assay [6] has as its target HLA-A2 on T2 cells pulsed with GRID1: 7-15 peptide (human). Description: flow cytometry, 10 ug/ml, pulsed T2 cells.
Assay [7] deals with HLA-A2 on T2 cells pulsed with FBXL22: 4-12 peptide (human). Description: flow cytometry, 10 ug/ml, pulsed T2 cells.
Assay [8] concerns the target HLA-A2 on T2 cells pulsed with ITCH (807-815) peptide (human). Description: flow cytometry, 10 ug/ml, pulsed T2 cells.
In assay [9] the target is T2, HLA-A2 on T2 cells pulsed with NY-ESO-1:157-165, wt peptide (C165) (human).
T2 construct: also called T2 Pulsed NY-ESO-1_157-165
Description: flow cytometry, 10 ug/ml, pulsed T2 cells.

The target in assay [10] is T2, HLA-A2 on T2 cells pulsed with …. As to the kind of experiment: flow cytometry, peptide-pulsed T2 cells.
For assay [11], the target named is HLA-A2 on T2 cells pulsed with MAGEH1: 90-98 peptide (human). As to the kind of experiment: flow cytometry, 10 ug/ml, pulsed T2 cells.
Assay [12] addresses HLA-A2 on T2 cells pulsed with ZDHHC1 (376-384) peptide (human). Description: flow cytometry, 10 ug/ml, pulsed T2 cells.

Numbering of substitutions follows the chain as printed.

As usually defined, the Kd is the constant that tells how readily two partners part at equilibrium. The low end stands for a tighter complex, the high end for a looser complex. As a reminder, the t½ is the time needed for the level to fall by half in the phase considered. Read a low t½ as fast loss. The term EC50 denotes the concentration that produces a half-maximal response. Lower therefore signals higher potency in that assay. One may read the koff as a measure of how fast the partners let go of each other. Higher therefore signals fast dissociation. A word on the kon: it is the rate constant with which the complex forms. Lower therefore signals slower complex formation.

B1: mAb28113P (antibody, human IgG4 S228P, kappa, V domains shown)
VH: EVQLVESGGGVVQPGGSLRLSCAASGFTFDDYAMHWVRQAPGKGLEWVSLISGGGGGTYYSDSVKGRFTISRDTSKDSLYLQMNSLRTEDTALYYCAKDMVFGVVTPYYYFALDVWGQGTTVTVSS
VL: not shown
As for B1, the Kd in assay [1] came to 1.94 nM; in [2] it was 0.639 nM. In addition, the values for the t½ in assay [1] and in assay [2] were 7.9 min and 35.5 min, respectively. Moreover, the “ratio of MFI, pulsed to unpulsed” value in assay [3] is 0.6 ratio; in assay [4], 1 ratio; in [5], 0.5 ratio; in assay [6] it was 0.9 ratio; in assay [7] it was 0.5 ratio; in assay [8], 0.9 ratio. For the same molecule, the “ratio of MFI, pulsed to unpulsed” value in assay [9] stood at 115 ratio. This molecule also came in with a 50% effective concentration (EC50) in [10] of 0.6 nM.

B2: mAb24958N (antibody, human IgG4 S228P, kappa, V domains shown)
VH: QVQLQESGPGLVKPSQTLSLTCTVSGGSIISDGYYWSWIRQHPGKGLEWIGYVDYSGNTYYNPSLKSRIIMSVDTSKNQFSLKLTSVTAADTAVYFCVREGPLRDAFEIWGQGTMVTVSS
VL: DIQMTQSPSSLSASVGDRVTITCRTSQSISRYLNWYQQKPGKAPKLLIFAASSLQSGVPSRFSGSGSGADFTLTISSLQPEDFATYYCQQSYSTPPITFGQGTRLEIKR
On to B2, for which the Kd in [2] stood at 2.77 nM. In assay [2], this molecule gave a t½ of 65.4 min. Besides, the “ratio of MFI, pulsed to unpulsed” value was found to be 0.6 ratio in [3]; 0.6 ratio in assay [5]; 0.5 ratio in [11]; 0.7 ratio in assay [6]; 0.5 ratio in [7]; 1 ratio in assay [8]. In addition, the “ratio of MFI, pulsed to unpulsed” value in assay [9] was 98.6 ratio. This molecule also returned a half-maximal effective concentration (EC50) in assay [10] of 19 nM.

B3: mAb28105P (antibody, human IgG4 S228P, kappa, V domains shown)
VH: EVQLVESGGGVVQPGGSLRLSCEASGFIFDDYAMHWVRQAPGKGLEWVSLISGDGDIIYYADSVKGRFTISRDNSKNSLYLQMNSLIIEDTALYYCAKDWVFGVVMTHYWYFGLDVWGQGTTVTVSS
VL: B2 VL with V15E, T25A, R31T, F49Y, A50G, A69T, R104K, L105V
On to B3, for which the Kd came to 0.586 nM in assay [1] and 0.386 nM in assay [2]. The t½ was 21.3 min in assay [1] and 62.8 min in [2]. Also, the “ratio of MFI, pulsed to unpulsed” value was 0.5 ratio in assay [12]; 0.6 ratio in assay [3]; 0.6 ratio in assay [5]; 0.5 ratio in assay [11]; 0.7 ratio in assay [6]; 0.5 ratio in assay [7]. Besides, the “ratio of MFI, pulsed to unpulsed” value in assay [8] amounted to 1 ratio; in assay [9] it was 126 ratio. For the same molecule, in [10], a half-maximal response (EC50) required 1.8 nM.

B4: mAb29814P (antibody, human IgG4 S228P, kappa, V domains shown)
VH: QVQLVESGGGVVQPGRSLRLSCVASGFTFSSYGMHWVRQAPGKGLEWVAVIWYVGSNKYYGDSVKGRFTISRDNSKNTLYLQMNSLRAEDTAVYYCARDLIADRPGYYYNGMDVWGQGTTVTVSS
VL: EIVMTQSPVTLFVSPGERATLSCRASQSVNTNLAWYQQQPGQAPRLLIHGASTRPTGVPARFSGSGSGTEFTLIISSLQSEDFAVYYCQQYNNWPPWTFGQGTKVEIKR
B4: the “ratio of MFI, pulsed to unpulsed” value was determined as 0.6 ratio in [12]; 7.9 ratio in assay [3]; 150 ratio in assay [4]; 0.6 ratio in assay [5]; 0.4 ratio in assay [11]; 1.6 ratio in assay [6]. The figures for the “ratio of MFI, pulsed to unpulsed” value in assay [7], in assay [8] and in assay [9] were 0.5 ratio, 0.9 ratio and 124 ratio, respectively. Further, a half-maximal response in [10] (EC50) required 1.1 nM.

B5: mAb24959N (antibody, human IgG4 S228P, kappa, V domains shown)
VH: QLQLLESGPGLVKPSETLSLICTVSGGSIRGSSYYWGWIRQPPEKGLEWIGSIYSSGSTYYNPSLKSRVTISADTSKNQFSLKLSSVTAADTAVYYCARHGGITAVQLEFDPWGQGTLVTVSS
VL: DIQMTQSPSSLSASVGDRVTITCQASQDISNYLKWYQQKPGKAPKILIHDASNLEIGVPSRFSGSGAGTDFIFTISSLQPEDIGTYYCQQYDNLPITFGQGTRLEIKR
Take B5: the dissociation constant Kd in assay [2] is 1.23 nM. The molecule also returned a koff in assay [2] of 0.000517 s⁻¹. The molecule also came in with a kon in assay [2] of 421000 M⁻¹ s⁻¹. Also, the t½ in assay [2] was found to be 22.3 min. Moreover, the “ratio of MFI, pulsed to unpulsed” value amounted to 0.4 ratio in assay [12]; 0.6 ratio in [3]; 80.7 ratio in assay [4]; 0.6 ratio in assay [5]; 0.4 ratio in assay [11]; 3.2 ratio in [6]. Also, the results for the “ratio of MFI, pulsed to unpulsed” value in assay [7], in assay [8] and in assay [9] were 0.5 ratio, 0.9 ratio and 131 ratio, respectively. Also, in [10], the EC50 was 1.1 nM.

B6: mAb28075P (antibody, human IgG4 S228P, kappa, V domains shown)
VH: EVQLVESGGGVVQPGGSLRLSCAASGFTFDDYAMHWVRQAPGKGLEWVSLISGDGDNTYYADSVKGRFTISRDNNKNSLYLQMNSLRTEDTAFYYCAKELIFGKVLHDFYYYVMDVWGQGTTVTVSS
VL: not shown
In the case of B6, the Kd in assay [1] is 1 nM; in [2], 0.388 nM. The t½ in assay [1] stood at 9.1 min; in [2], 32.8 min. Besides, the “ratio of MFI, pulsed to unpulsed” value in [3] was 0.5 ratio; in assay [4] it was 1.5 ratio; in assay [5], 0.5 ratio; in [11], 0.5 ratio; in [6], 1.4 ratio; in assay [7] it was 0.5 ratio. Further, the figures for the “ratio of MFI, pulsed to unpulsed” value in [8] and in assay [9] were 1 ratio and 58.8 ratio, respectively. The molecule also registered a half-maximal effective concentration (EC50) in [10] of 0.38 nM.

B7: mAb28035P (antibody, human IgG4 S228P, kappa, V domains shown)
VH: QVQLVQSGAEVMKPGASVKVSCKVSGYTLSDLSMHWVRQAPGKGLEWMGGFDFEHGKTIYAQKFQGRVTMTEDTSTDTTYMELSSLRSEDTAVYYCAKVPNWGFFDYWGQGTLVTVSS
VL: not shown
Consider B7, for which the Kd in assay [1] was found to be 0.378 nM; in assay [2], 0.342 nM. In addition, the dissociation rate constant (koff) amounted to 0.000253 s⁻¹ in [1] and 0.000152 s⁻¹ in assay [2]. The values for the kon in assay [1] and in [2] were 669000 M⁻¹ s⁻¹ and 445000 M⁻¹ s⁻¹, respectively. Also, the results for the t½ in assay [1] and in assay [2] were 45.7 min and 75.9 min, respectively. The “ratio of MFI, pulsed to unpulsed” value turned out to be 0.9 ratio in assay [12]; 0.5 ratio in [3]; 170 ratio in assay [4]; 0.6 ratio in assay [5]; 0.4 ratio in assay [11]; 1.4 ratio in [6]. In addition, the “ratio of MFI, pulsed to unpulsed” value in assay [7] came out at 0.5 ratio; in assay [8] it was 1 ratio; in assay [9], 131 ratio. In assay [10], this molecule registered a half-maximal effective concentration (EC50) of 2.7 nM.

B8: mAb29822P2 (antibody, human IgG4 S228P, kappa, V domains shown)
VH: EVQLVESGGGVVQPGGSLRLSCAVSGFTFDDYAMHWVRQAPGKGLEWVSLISGDGGSTHYADSVKGRFTISRDNSKNSLYLQMNSLRTGDTALYYCAKDMIFAVVITDYHYYGMDVWGQGTTVTVSS
VL: not shown
For B8, the “ratio of MFI, pulsed to unpulsed” value in [4] worked out at 0.8 ratio; in assay [5], 0.5 ratio; in assay [6] it was 0.7 ratio; in assay [8], 0.8 ratio; in assay [9] it was 36.7 ratio. The same molecule gave an EC50 in assay [10] of 5.4 nM.

B9: mAbm24955N (antibody, V domains shown)
VH: EVQLVESGGGVVQPGGSLRLSCVASGFTFDDYAMYWVRQVPGKDLEWVSLISGDGDITYYVDSVKGRFTVSRDNNKNSLYLQMKSLRVEDTALYYCAKDMIYYASWSGYGSSDYYYYVMDVWGQGTTVTVSS
VL: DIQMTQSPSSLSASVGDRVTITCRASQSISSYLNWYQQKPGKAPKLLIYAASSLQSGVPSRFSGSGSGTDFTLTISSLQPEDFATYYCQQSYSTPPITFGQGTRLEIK
notes: the prefix mAbm is not explained (perhaps a mouse constant region)
As for B9, in assay [2], the Kd stood at 2.27 nM and the t½ came out at 9 min.

B10: mAb24956N (antibody, human IgG4 S228P, kappa, V domains shown)
VH: EVQLVESGGGVVQPGGSLRLSCAASGFTFDDYAMYWVRQAPGKGLEWVSLISGDGGSMYYADSVKGRFTISRDNSKNSLYLQMNSLRTEDTALYYCAKDMIFYAFWSGYGSSDYYYYVMDVWGQGTTVTVYS
VL: not shown
In assay [2], B10 yielded a Kd of 0.387 nM. Moreover, the t½ in [2] was 31.6 min. The “ratio of MFI, pulsed to unpulsed” value worked out at 0.5 ratio in assay [3]; 0.6 ratio in assay [5]; 1 ratio in assay [6]; 0.5 ratio in assay [7]; 0.9 ratio in assay [8]; 125 ratio in assay [9]. In assay [10], this molecule registered an EC50 of 0.47 nM.
